In patent publication US20240116985A1, “STAPLED PEPTIDES AND METHODS THEREOF” (priority 2020, published 2024):
Starred links: 1 amine or outer side, 2 acyl side, 3 side chain; linkers in the order of their positions; H or OH if unused. Positions of bridges follow the written chain, without caps; N, C: chain ends. Non-standard residues stand in square brackets, D forms with d. Primed or numbered codes have the meaning given here. PyrS2″ = (S)-3-amino-1-((pent-4-en-1-yloxy)carbonyl)pyrrolidine-3-carboxylic acid (stapling residue), C=CCCCOC(=O)N1CC[C@@](N[*:1])(C(=O)[*:2])C1; B5(4) = 2,2-bis(4-pentenyl)glycine = 2-amino-2-(pent-4-en-1-yl)hept-6-enoic acid (stitching residue), C=CCCCC(CCCC=C)(N[*:1])C(=O)[*:2]; TfeGA = (S)-2-amino-3-((carboxymethyl)(2,2,2-trifluoroethyl)amino)propanoic acid, O=C([C@H](CN(CC(=O)[*:3])CC(F)(F)F)N[*:1])[*:2]; PyrS2 = (S)-3-amino-1-((pent-4-en-1-yloxy)carbonyl)pyrrolidine-3-carboxylic acid, C=CCCCOC(=O)N1CC[C@@](N[*:1])(C(=O)[*:2])C1; B5(19) = 2-amino-2-(pent-4-en-1-yl)hept-6-enoic acid (bis(4-pentenyl)glycine), C=CCCCC(CCCC=C)(N[*:1])C(=O)[*:2]; MorphAsn = (S)-2-amino-4-morpholino-4-oxobutanoic acid, O=C(C[C@H](N[*:1])C(=O)[*:2])N1CCOCC1; B5(3) = 2,2-bis(4-pentenyl)glycine (stitching residue), C=CCCCC(CCCC=C)(N[*:1])C(=O)[*:2]; Phe(3-COOH) = N[C@@H](Cc1cccc(C(=O)O)c1)C(=O)O; 2F3MeF = Cc1cccc(C[C@H](N[*:1])C(=O)[*:2])c1F; Phe(2-Cl) = N[C@@H](Cc1ccccc1Cl)C(=O)O; Bta = N[C@@H](Cc1csc2ccccc12)C(=O)O; Lys(iPr) = CC(C)NCCCC[C@H](N)C(=O)O; hTyr = N[C@@H](CCc1ccc(O)cc1)C(=O)O; αAllylPro = C=CC[C@@]1(C(=O)O)CCCN1; tBuAla = CC(C)(C)C[C@H](N)C(=O)O; 3Thi = N[C@@H](Cc1ccsc1)C(=O)O; R5 = C=CCCC[C@@](C)(N)C(=O)O; hLeu = CC(C)CC[C@H](N)C(=O)O; S5 = C=CCCC[C@](C)(N)C(=O)O; hSer = N[C@@H](CCO)C(=O)O; Nle = CCCC[C@H](N)C(=O)O; Aib = CC(C)(N)C(=O)O

B1: I-1781 (peptide)
peptide: Ac-[αAllylPro]D[tBuAla][S5]DD[Aib]AF[R5]A[3Thi][Bta][S5]A-NH2
modifications: staple (positions not given here); not fully specified; printed as Ac-PL3-Asp-Npg-S5-Asp-Asp-Aib-Ala-Phe-R5-Ala-3Thi-BztA-S5-Ala-NH2; also: staple pairing among PL3 1, S5 4, R5 10, S5 14 not given here
B2: I-1780 (peptide)
peptide: Ac-[αAllylPro]D[tBuAla][S5]DD[Aib]AF[R5]A[3Thi][Bta][S5]A-NH2
modifications: staple (positions not given here); not fully specified; printed as Ac-PL3-Asp-Npg-S5-Asp-Asp-Aib-Ala-Phe-R5-Ala-3Thi-BztA-S5-Ala-NH2; also: staple pairing among PL3 1, S5 4, R5 10, S5 14 not given here
B3: I-1778 (peptide)
peptide: Ac-[αAllylPro]D[tBuAla][S5]DDAAF[R5]A[3Thi][Bta][S5]A-NH2
modifications: staple (positions not given here); not fully specified; printed as Ac-PL3-Asp-Npg-S5-Asp-Asp-Ala-Ala-Phe-R5-Ala-3Thi-BztA-S5-Ala-NH2; also: staple pairing among PL3 1, S5 4, R5 10, S5 14 not given here

These binders were tested against full-length beta-Catenin (Uniprot ID P35222) (Homo sapiens (Human)) (UniProt P35222) (assay: fluorescence polarization competition against 5FAM-TCF4 10-53 on full-length beta-catenin).

In order of falling IC50:
1. Ac-[αAllylPro]D[tBuAla][B5(4)]NTAAFL[PyrS2″][3Thi][Bta]Q-NH2 (staple 1-4, 4-11) [I-1618]  10000 nM
2. B1  8450 nM
3. B2  4190 nM
4. B3  2080 nM
5. Ac-[αAllylPro]D[tBuAla][B5(4)]NTAAF[hLeu][PyrS2″][3Thi][Bta]Q-NH2 (staple 1-4, 4-11) [I-1620]  2060 nM
6. Ac-[αAllylPro]D[tBuAla][B5(4)]NTAAF[Nle][PyrS2″][3Thi][Bta]Q-NH2 (staple 1-4, 4-11) [I-1619]  1290 nM
7. Ac-[αAllylPro]D[tBuAla][B5(19)]DYAAFL[PyrS2][3Thi][Bta]Q-NH2 (staple 1-4, 4-11) [I-1784]  528 nM
8. Ac-[αAllylPro]D[tBuAla][B5(4)]NTAAFT[PyrS2″][3Thi][Bta]Q-NH2 (staple 1-4, 4-11) [I-1621]  266 nM
9. Ac-[αAllylPro]D[tBuAla][B5(19)]DYAAF[hSer][PyrS2][3Thi][Bta]Q-NH2 (staple 1-4, 4-11) [I-1783]  101 nM
10. Ac-[αAllylPro]D[tBuAla][B5(19)]D[hTyr]AAF[hSer][PyrS2][3Thi][Bta]Q-NH2 (staple 1-4, 4-11) [I-1786]  42 nM
11. Ac-[αAllylPro]D[tBuAla][B5(3)]D[Phe(3-COOH)]AAFL[PyrS2″][2F3MeF][Bta][MorphAsn]-NH2 (staple 1-4, 4-11) [I-1614]  15 nM
12. Ac-[αAllylPro]D[tBuAla][B5(3)]D[TfeGA]AAFT[PyrS2″][Phe(2-Cl)][Bta][Lys(iPr)]-NH2 (staple 1-4, 4-11) [I-1615]  9 nM
13. Ac-[αAllylPro]D[tBuAla][B5(3)]D[TfeGA]AAFT[PyrS2″][Phe(2-Cl)][Bta][MorphAsn]-NH2 (staple 1-4, 4-11) [I-1613]  9 nM
